Key:
[1] = system: MS2 coat protein; test: apparent KD of MS2 coat protein, switch ON state; designed switch direction (-1 OFF switch, 1 ON switch): -1; higher = weaker reporter binding; conditions: FMN input: 0 or 200 uM; Eterna round: R93 (includes R88 designs)
Summary of the method: (§1)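 Apparent KD stands for the median, per design, of fits to normalised cluster binding curves. The curves came from titrating on-chip-transcribed RNA switches on Illumina sequencing clusters with SNAP-549-labelled MS2 coat protein, twofold from 0.7 or 1.5 nM to 3 µM. Buffer was 100 mM Tris-HCl pH 7.5, 80 mM KCl, 4 mM MgCl2, without or with constant ligand.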

[2] = system: MS2 coat protein; test: apparent KD of MS2 coat protein, switch OFF state (with FMN for OFF switches, without FMN for ON switches); designed switch direction (-1 OFF switch, 1 ON switch): -1; higher = weaker reporter binding; conditions: FMN input: 0 or 200 uM; Eterna round: R93 (includes R88 designs)
Summary of the method: as §1

AAAAAACAUGAGGAUCACCCAUGUCAGGAUAUCGAAAGAAAAAAAAAGAAAGAAAAAACGAGAAGGGACAAAAA [Amethyst 29]
apparent KD of MS2 coat protein [1]: 0.0201 µM
apparent KD of MS2 coat protein [2]: 0.0331 µM

AAAAAACAUGAGGAUCACCCAUGUGAGGAUAUCCAAAAGUUAAAGAAAAAGACGAAAAGGAGAAGGCGCAAAAA [Fiskers Exclusion D3]
apparent KD of MS2 coat protein [1]: 0.0687 µM
apparent KD of MS2 coat protein [2]: 0.0407 µM

AAAAAACAUGAGGAUCACCCAUGUGAGGAUAUCCUAAAAAAAAAAAAAAAAAAAAAAAGGAGAAGGCACAUAAA [EXCLS-II]
apparent KD of MS2 coat protein [1]: 0.0476 µM
apparent KD of MS2 coat protein [2]: 0.0648 µM

AAAAAACAUGAGGAUCACCCAUGUGAGGAUAUCCUGGUUGAAAAAAAAAAAACAACCAGGAGAAGGCACAAAAA [EXCL-I]
apparent KD of MS2 coat protein [1]: 0.0452 µM
apparent KD of MS2 coat protein [2]: 0.0578 µM

AAAAAACAUGAGGAUCACCCAUGUGAGGAUAUGAUGCGAAUAAAGAAAGAAGAAAGCAUCAGAAGGCACAUAUG [Mod of Disincluded 3 (little more stable fmn state)]
apparent KD of MS2 coat protein [1]: 0.0395 µM
apparent KD of MS2 coat protein [2]: 0.234 µM

AAAAAACAUGAGGAUCACCCAUGUGAGGAUAUGCAAAACCCAUAUAAAAAGGGAAAAAGUAGAAGGCGCAAAAA [wbt round 1 mod 9]
apparent KD of MS2 coat protein [1]: 0.0205 µM
apparent KD of MS2 coat protein [2]: 0.0174 µM

AAAAAACAUGAGGAUCACCCAUGUGAGGAUAUGCAGCGAAUAAAGAAAGAAGAAAGCAGCAGAAGGCACACCAA [Amethyst 78]
apparent KD of MS2 coat protein [1]: 0.0264 µM
apparent KD of MS2 coat protein [2]: 0.0441 µM

AAAAAACAUGAGGAUCACCCAUGUGAGGAUAUGCUAUGGAAAUAAAAAAUAAAACAUAGCAGAAGGCACACCAA [Mat - Exclusion 1 - Eli mod - D44]
apparent KD of MS2 coat protein [1]: 0.031 µM
apparent KD of MS2 coat protein [2]: 0.0429 µM

AAAAAACAUGAGGAUCACCCAUGUGAGGAUAUGUACGAAAUAAAAUAAAAAUAAAAGUACAGAAGGCACAAAAA [Mat - Exclusion 1 - Eli mod - D4]
apparent KD of MS2 coat protein [1]: 0.0402 µM
apparent KD of MS2 coat protein [2]: 0.0466 µM

AAAAAACAUGAGGAUCACCCAUGUGAGGAUAUUGGUAUUCAAGAAACCCUCUUAAUAGCGAGAAGGCGCAAAAA [Brourd 613 Mod 18 - Jieux - Exclusion 1]
apparent KD of MS2 coat protein [1]: 0.0222 µM
apparent KD of MS2 coat protein [2]: 0.0198 µM

AAAAAGAGAGGAUAUACAUGAGGAUCACCCAUGUGACAUUAAAUAAAUAAAAUAAAGUGUAGAAGGCUCAAAAA [65%, Moding Exclusion3-cac2, 23]
apparent KD of MS2 coat protein [1]: 0.0381 µM
apparent KD of MS2 coat protein [2]: 0.136 µM

AAAAAGGCAGGAUAUACAUGAGGAUCACCCAUGUGAAAAAAAAAAAAAAAAAAAAAGUGUAGAAGGGUCAAAAA [Exclusion 3 - Omei 2]
apparent KD of MS2 coat protein [1]: 0.0517 µM
apparent KD of MS2 coat protein [2]: 0.0514 µM

AAAAAGGCAGGAUAUACGAGUCAAAGAAAAGACAAAAAGGGACAUGAGGAUCACCCAUGUAGAAGGGCCAAAAA [Fiskers exclusion D2 62% 4]
apparent KD of MS2 coat protein [1]: 0.0516 µM
apparent KD of MS2 coat protein [2]: 0.193 µM

AAAAAGGGAGGAUAUACAGGAGGUAAGGAAAAAAAAAAAAAACAUGAGGAUCACCCAUGUAGAAGGCUUAAAAA [Ecls2-IV]
apparent KD of MS2 coat protein [1]: 0.0303 µM
apparent KD of MS2 coat protein [2]: 0.022 µM

AAAAAGGGAGGAUAUACAUGAGGAUCACCCAUGUAAAAAAACGCGGGAGGGAGGGAAGGUAGAAGGCCCAAAAA [Excls3-IV]
apparent KD of MS2 coat protein [1]: 0.0203 µM
apparent KD of MS2 coat protein [2]: 0.023 µM

AAAAAGGUAGGAUAUACAUGAGGAUCACCCAUGUGAAAGAAAAAUAAGAAAAGAAAGAGUAGAAGGACCAAAAA [JL JSci Mod]
apparent KD of MS2 coat protein [1]: 0.031 µM
apparent KD of MS2 coat protein [2]: 0.0307 µM

AAAAAGUAAGGAUAUAGCAAAGGUCACGAAAGUGACAAAGGCUAGAAGGUACAUGAGGAUCACCCAUGUCCAAA [Fiskers Exclusion 4 D2 63% 3]
apparent KD of MS2 coat protein [1]: 0.0199 µM
apparent KD of MS2 coat protein [2]: 0.0177 µM

AAAAAGUCAGGAUAUACGUACAUGUCAAAAGACGUGAAGGGACAUGAGGAUCACCCAUGUAGAAGGGACAAGAA [JL Stem Breaker 21]
apparent KD of MS2 coat protein [1]: 0.106 µM
apparent KD of MS2 coat protein [2]: 0.0496 µM

AAAAAGUCAGGAUAUAUAGGAAAAAUAAAAAAAAUAAAACUAUAGAAGGGACAUGAGGAUCACCCAUGUUAAAA [Ex 4 May 15]
apparent KD of MS2 coat protein [1]: 0.0454 µM
apparent KD of MS2 coat protein [2]: 0.0229 µM

AAAAAGUCAGGAUAUAUCAAAAAAAAAGAAAAAAAAAAAAGAUAGAAGGGACAUGAGGAUCACCCAUGUAAAAA [water's exclusion 4 last]
apparent KD of MS2 coat protein [1]: 0.0743 µM
apparent KD of MS2 coat protein [2]: 0.0342 µM

AAAAAGUCAGGAUAUGCGAAGGCGUCUGAUAGACGAGGCUAGCAGAAGGGACAUGAGGAUCACCCAUGUGAAGA [Mat - Exclusion 4 - Eli mod - D84]
apparent KD of MS2 coat protein [1]: 0.0498 µM
apparent KD of MS2 coat protein [2]: 0.0975 µM

AAAAAGUCAGGAUAUGUCAAAGGUCACGAAAGUGACAAAGGACAGAAGGGACAUGAGGAUCACCCAUGUAGGAA [Fiskers Exclusion 4D1 65% - Late G segment 2]
apparent KD of MS2 coat protein [1]: 0.0555 µM
apparent KD of MS2 coat protein [2]: 0.0685 µM

AAAAAGUCAGGAUAUGUGAAAAAAAAAAAAAAAAAAAAAAAACAGAAGGGACAUGAGGAUCACCCAUGUAAAAA [water's exclusion 4 2nd]
apparent KD of MS2 coat protein [1]: 0.06 µM
apparent KD of MS2 coat protein [2]: 0.0464 µM

AAAAAGUCAGGAUAUUCGGAAGGGAAAGCGCAAACCCAACCGAAGAAGGGACAUGAGGAUCACCCAUGUGGAAA [Ecls4-III 65% - Late G segment 1]
apparent KD of MS2 coat protein [1]: 0.079 µM
apparent KD of MS2 coat protein [2]: 0.0889 µM

AAAAAGUGAGGAUAUACGCUGAAGAGUAGACACAACCAGGCGUAGAAGGCACAUGAGGAUCACCCAUGUACAAA [Ex4 Malc#9]
apparent KD of MS2 coat protein [1]: 0.0286 µM
apparent KD of MS2 coat protein [2]: 0.0261 µM

AAAAAGUGAGGAUAUACGCUGAAGAGUAGACACAACCAGGCGUAGAAGGCACAUGAGGAUCACCCAUGUCCAAA [Ex4 Malc#10]
apparent KD of MS2 coat protein [1]: 0.0213 µM
apparent KD of MS2 coat protein [2]: 0.0412 µM

AAAAAGUGAGGAUAUAGCAAAGGUCACGAAAGUGACAAAGGCUAGAAGGCACAUGAGGAUCACCCAUGUCCAAA [Fiskers Exclusion 4 D2 63% 2]
apparent KD of MS2 coat protein [1]: 0.0247 µM
apparent KD of MS2 coat protein [2]: 0.0556 µM

AAAAAGUGAGGAUAUAUAUGAAACAAAAAGAAAAAAAAAAAACAUGAGGAUCACCCAUGUAGAAGGCGCAAAAA ['Exclusion 2' Lab]
apparent KD of MS2 coat protein [1]: 0.0271 µM
apparent KD of MS2 coat protein [2]: 0.0215 µM

AAAAAGUGAGGAUAUGCGAAGGCGUCUGAUAGACGAGGCUAGCAGAAGGCACAUGAGGAUCACCCAUGUGGGAG [Mat - Exclusion 4 - Eli mod - D93]
apparent KD of MS2 coat protein [1]: 0.0715 µM
apparent KD of MS2 coat protein [2]: 0.148 µM

AAAAAUCGAGGAUAUACAUGAGGAUCACCCAUGUCAGAAAAUGACUACACAAAAGAAAGUAGAAGGCGAUAAAA [Ex 3 May 18]
apparent KD of MS2 coat protein [1]: 0.0294 µM
apparent KD of MS2 coat protein [2]: 0.0303 µM

AAAAAUGGAGGAUAUACAUGAGGAUCACCCAUGUGUAACUAAACAAAACACAAAAAAAGUAGAAGGCCAAAAAA [Gilly Gone Silly 6 - Jieux - Exclusion 3]
apparent KD of MS2 coat protein [1]: 0.0145 µM
apparent KD of MS2 coat protein [2]: 0.0171 µM

AAAAAUGGAGGAUAUACAUGAGGAUCACCCAUGUGUAACUAUACUAAGCACACCUCACGUAGAAGGCCAAAAAA [Gilly Gone Silly 12 - Jieux - Exclusion 3]
apparent KD of MS2 coat protein [1]: 0.105 µM
apparent KD of MS2 coat protein [2]: 0.321 µM

AAAAAUGGAGGAUAUACAUGAGGAUCACCCAUGUGUGGCCAUACUAUGUGGGCGUCAGGUAGAAGGCCAAAAAA [Gilly Gone Silly 24 - Jieux - Exclusion 3]
apparent KD of MS2 coat protein [1]: 0.0223 µM
apparent KD of MS2 coat protein [2]: 0.056 µM

— the supplement of paper PMC9170038
